Assay results as given in patent US20200102387A1 (CELGENE, published 2020).
One block for each binder: values may come before it.

Columns and labels:
mouse SIRPα on cells = target: T1, mouse SIRPα on cells (mouse, UniProt P97797 32-513); assay: cell binding, Ms SIRPα-CHO-K1 cells, 100 nM antibody
T1 construct: whole, on cells; also called mouse SIRPα-CHO-K1; Ms SIRPα-CHO-K1
T1 sequence (looked up): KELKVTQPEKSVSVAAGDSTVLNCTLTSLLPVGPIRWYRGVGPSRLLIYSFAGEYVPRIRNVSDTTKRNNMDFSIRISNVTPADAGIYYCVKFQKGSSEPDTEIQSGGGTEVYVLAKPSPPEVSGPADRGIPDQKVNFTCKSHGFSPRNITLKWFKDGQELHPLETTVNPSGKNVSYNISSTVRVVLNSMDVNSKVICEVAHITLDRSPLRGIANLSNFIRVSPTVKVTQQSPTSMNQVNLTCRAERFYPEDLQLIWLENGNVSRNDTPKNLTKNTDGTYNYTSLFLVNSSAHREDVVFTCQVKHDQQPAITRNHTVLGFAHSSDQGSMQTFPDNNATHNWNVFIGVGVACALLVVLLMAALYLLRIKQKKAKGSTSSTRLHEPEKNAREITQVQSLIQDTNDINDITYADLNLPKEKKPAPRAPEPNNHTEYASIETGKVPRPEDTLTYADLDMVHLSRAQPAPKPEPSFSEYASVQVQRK

mouse SIRPα-Fc [1] = target: T2, mouse SIRPα-Fc (mouse); assay: BLI Octet, antigen-Fc on biosensor
T2 construct: a signal peptide may be part of the entry; also called Ms; Ms SIRPα-Fc

NOD/SCID mouse SIRPα-Fc = target: T3, NOD/SCID mouse SIRPα-Fc (mouse (NOD/SCID)); assay: BLI Octet, antigen-Fc on biosensor
T3 construct: a signal peptide may be part of the entry; also called NOD/SCID Ms SIRPα-Fc
T3 sequence (chain, as listed by the source limits assumed): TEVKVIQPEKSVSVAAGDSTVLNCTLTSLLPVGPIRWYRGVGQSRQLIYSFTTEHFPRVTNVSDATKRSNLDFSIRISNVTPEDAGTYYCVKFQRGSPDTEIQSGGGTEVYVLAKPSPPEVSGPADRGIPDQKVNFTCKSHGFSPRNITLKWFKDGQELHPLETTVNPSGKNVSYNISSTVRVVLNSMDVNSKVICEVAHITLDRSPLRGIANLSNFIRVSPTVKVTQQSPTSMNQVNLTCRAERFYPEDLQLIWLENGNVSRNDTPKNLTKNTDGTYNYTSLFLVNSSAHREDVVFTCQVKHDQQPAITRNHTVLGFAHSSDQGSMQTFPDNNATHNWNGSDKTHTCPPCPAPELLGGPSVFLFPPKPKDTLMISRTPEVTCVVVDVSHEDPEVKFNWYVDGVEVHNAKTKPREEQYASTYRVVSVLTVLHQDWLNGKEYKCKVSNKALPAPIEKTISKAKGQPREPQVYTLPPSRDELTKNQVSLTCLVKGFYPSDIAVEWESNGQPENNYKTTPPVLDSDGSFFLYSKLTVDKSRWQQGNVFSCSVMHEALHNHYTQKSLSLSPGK

human SIRPβ-Fc = target: T4, human SIRPβ-Fc (human); assay: BLI Octet, antigen-Fc on biosensor;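 note: antigen captured on the biosensor tip and then immersed in solutions of the test antibodies, which act as the analyte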
T4 construct: a signal peptide may be part of the entry

[2] = target: T5, human SIRPα v4-Fc (SIRPα4 extracellular domain fused to human IGHG1_Fc) (human, UniProt P78324 31-373; P0DOX5 223-449 = IgG part); assay: BLI Octet, antigen-Fc on biosensor;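 note: antigen captured on the biosensor tip and then immersed in solutions of the test antibodies, which act as the analyte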
T5 construct: as m38; also called V4 (e.g. SIRPα4)

[3] = target: T6, human SIRPα v5-Fc (SIRPα5 extracellular domain fused to human IGHG1_Fc) (human, UniProt P78324 31-373; P0DOX5 223-449 = IgG part); assay: BLI Octet, antigen-Fc on biosensor;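 note: antigen captured on the biosensor tip and then immersed in solutions of the test antibodies, which act as the analyte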
T6 construct: as m38; also called V5 (e.g. SIRPα5)

[4] = target: T7, human SIRPα v6-Fc (SIRPα6 extracellular domain fused to human IGHG1_Fc) (human, UniProt P78324 31-373; P0DOX5 223-449 = IgG part); assay: BLI Octet, antigen-Fc on biosensor;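 note: antigen captured on the biosensor tip and then immersed in solutions of the test antibodies, which act as the analyte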
T7 construct: as m38; also called V6 (e.g. SIRPα6)

[5] = target: T8, human SIRPα v3-Fc (SIRPα3 extracellular domain fused to human IGHG1_Fc) (human, UniProt P78324 31-373; P0DOX5 223-449 = IgG part); assay: BLI Octet, antigen-Fc on biosensor
T8 construct: as m38; also called V3 (e.g. SIRPα3)

[6] = target: T9, human SIRPα v1-Fc (SIRPα1 extracellular domain fused to human IGHG1_Fc) (human, UniProt P78324 31-373; P0DOX5 223-449 = IgG part); assay: BLI Octet, antigen-Fc on biosensor
T9 construct: also called V1 (e.g. SIRPα1); SIRPα V1: DLN

human SIRPγ-Fc = target: T10, human SIRPγ-Fc (human); assay: BLI Octet, antigen-Fc on biosensor
T10 construct: a signal peptide may be part of the entry

[7] = target: T11, human SIRPα v2-Fc (SIRPα2 extracellular domain fused to human IGHG1_Fc) (human, UniProt P78324 31-373; P0DOX5 223-449 = IgG part); assay: BLI Octet, antigen-Fc on biosensor
T11 construct: as m38; also called V2 (e.g. SIRPα2); SIRPα V2:ESE

mouse SIRPα-Fc [8] = target: T2, mouse SIRPα-Fc; assay: BLI Octet, antigen-Fc on biosensor; remark: listed apart in the source
Target sequence in this assay (chain, as listed by the source limits assumed): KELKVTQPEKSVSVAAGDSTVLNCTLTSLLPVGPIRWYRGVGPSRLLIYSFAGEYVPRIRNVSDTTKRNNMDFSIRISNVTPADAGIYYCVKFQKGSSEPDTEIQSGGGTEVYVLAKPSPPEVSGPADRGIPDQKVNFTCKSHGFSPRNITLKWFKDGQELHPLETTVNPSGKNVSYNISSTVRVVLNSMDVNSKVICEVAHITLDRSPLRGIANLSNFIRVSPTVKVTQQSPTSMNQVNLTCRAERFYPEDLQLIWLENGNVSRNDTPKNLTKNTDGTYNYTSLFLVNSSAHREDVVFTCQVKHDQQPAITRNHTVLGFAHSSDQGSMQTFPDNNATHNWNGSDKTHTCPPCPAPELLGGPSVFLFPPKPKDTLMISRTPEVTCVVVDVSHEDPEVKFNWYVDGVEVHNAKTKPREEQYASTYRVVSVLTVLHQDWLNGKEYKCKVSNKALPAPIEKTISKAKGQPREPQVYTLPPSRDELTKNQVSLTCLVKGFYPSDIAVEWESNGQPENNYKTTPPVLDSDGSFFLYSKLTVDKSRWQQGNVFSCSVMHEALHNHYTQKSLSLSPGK

cyno SIRPα-Fc = target: T12, cyno SIRPα-Fc (cynomolgus); assay: BLI Octet, antigen-Fc on biosensor
T12 construct: a signal peptide may be part of the entry

human SIRPα on cells = target: T13, human SIRPα on cells (human, UniProt P78324 31-504); assay: cell binding, Hu SIRPα-CHO-K1 cells, 100 nM antibody
T13 construct: whole, on cells; also called human SIRPα-CHO; Hu SIRPα-CHO-K1

[9] = target: T14, cynomolgus SIRPα on cells (cynomolgus, UniProt P78324 31-373 (human entry)); assay: cell binding, Cyno SIRPα-CHO-K1 cells, 100 nM antibody
T14 construct: also called cyno SIRPα-CHO; Cyno SIRPα-CHO-K1; not shown: Transmembrane and cytoplasmic region of cynomolgus SIRPα
T14 chain: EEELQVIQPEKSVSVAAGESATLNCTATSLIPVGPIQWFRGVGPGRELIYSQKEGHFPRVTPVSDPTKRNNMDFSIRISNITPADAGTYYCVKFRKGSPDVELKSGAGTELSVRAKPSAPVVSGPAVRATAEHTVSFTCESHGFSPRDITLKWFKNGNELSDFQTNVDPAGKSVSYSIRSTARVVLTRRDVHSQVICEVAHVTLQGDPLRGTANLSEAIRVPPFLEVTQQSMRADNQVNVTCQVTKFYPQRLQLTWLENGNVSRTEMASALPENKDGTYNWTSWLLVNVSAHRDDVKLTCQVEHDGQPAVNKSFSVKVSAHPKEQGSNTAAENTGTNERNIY

fold increase over background (100 nM) (mouse SIRPα on cells): 449 fold | Kd (mouse SIRPα-Fc [1]): 17.3 nM | koff (mouse SIRPα-Fc [1]): 0.00373 s⁻¹ | kon (mouse SIRPα-Fc [1]): 220000 M⁻¹ s⁻¹ | Kd (NOD/SCID mouse SIRPα-Fc): 152 nM | koff (NOD/SCID mouse SIRPα-Fc): 0.0228 s⁻¹ | kon (NOD/SCID mouse SIRPα-Fc): 150000 M⁻¹ s⁻¹
B1: SIRPAB-17 (antibody, human IgG1, kappa, V domains shown)
VH: QVQLQESGPGLVKPSQTLSLTCTVSGGSISSGGYYWSWIRQHPGKGLEWIGAIYYSGPIYYNPSLKSRVTISVDTSKNQFSLKLSSVTAADTAVYYCAREGYHSGMDVWGQGTTVTVSS
VL: DIQMTQSPSSLSASVGDRVTITCQASQDISNYLNWYQQKPGKAPKLLIYDASNLATGVPSRFSGSGSGTDFTFTISSLQPEDIATYYCQQFAYLPWTFGGGTKVEIKR

fold increase over background (100 nM) (mouse SIRPα on cells): 2440 fold | Kd (mouse SIRPα-Fc [1]): 1.46 nM | koff (mouse SIRPα-Fc [1]): 0.000708 s⁻¹ | kon (mouse SIRPα-Fc [1]): 490000 M⁻¹ s⁻¹ | Kd (NOD/SCID mouse SIRPα-Fc): 5.43 nM | koff (NOD/SCID mouse SIRPα-Fc): 0.0019 s⁻¹ | kon (NOD/SCID mouse SIRPα-Fc): 350000 M⁻¹ s⁻¹
B2: SIRPAB-21 (antibody, human IgG1, kappa, V domains shown)
VH: QVQLQESGPGLVKPSQTLSLTCTVSGGSISSGGYYWSWIRQHPGKGLEWIGAIYYSGPIYYNPSLKSRVTISVDTSKNQFSLKLSSVTAADTAVYYCSKEGYHSGMDVWGQGTTVTVSS
VL: DIQMTQSPSSLSASVGDRVTITCQASDDISDYLNWYQQKPGKAPKLLIYDASNLETGVPSRFSGSGSGTDFTFTISSLQPEDIATYYCQQFAYLPWTFGGGTKVEIKR

Kd (human SIRPβ-Fc): 0.34 nM | koff (human SIRPβ-Fc): 0.000477 s⁻¹ | kon (human SIRPβ-Fc): 1.4e+06 M⁻¹ s⁻¹ | Kd [2]: 1.93 nM | koff [2]: 0.00267 s⁻¹ | kon [2]: 1.38e+06 M⁻¹ s⁻¹ | Kd [3]: 1.58 nM | koff [3]: 0.00178 s⁻¹ | kon [3]: 1.13e+06 M⁻¹ s⁻¹ | Kd [4]: 0.38 nM | koff [4]: 0.000491 s⁻¹ | kon [4]: 1.28e+06 M⁻¹ s⁻¹ | Kd [5]: 0.21 nM | koff [5]: 0.000261 s⁻¹ | kon [5]: 1.24e+06 M⁻¹ s⁻¹ | Kd [6]: 0.25 nM | koff [6]: 0.000345 s⁻¹ | kon [6]: 1.4e+06 M⁻¹ s⁻¹ | Kd (human SIRPγ-Fc): 0.85 nM | koff (human SIRPγ-Fc): 0.00123 s⁻¹ | kon (human SIRPγ-Fc): 1.45e+06 M⁻¹ s⁻¹ | Kd [7]: 1.06 nM | koff [7]: 0.00132 s⁻¹ | kon [7]: 1.25e+06 M⁻¹ s⁻¹ | binding result (mouse SIRPα-Fc [8]): no binding | Kd (cyno SIRPα-Fc): 4.89 nM | koff (cyno SIRPα-Fc): 0.00683 s⁻¹ | kon (cyno SIRPα-Fc): 1.4e+06 M⁻¹ s⁻¹ | fold increase over background (100 nM) (human SIRPα on cells): 1170 fold | fold increase over background (100 nM) [9]: 1070 fold
B3: SIRPAB-10 (antibody, human IgG1, kappa, V domains shown)
VH: QVQLVQSGAEVKKPGASVKVSCKASGYTFTGYPISWVRQAPGQGLEWMGWIYAYGGNTNYAQKLQGRVTMTTDTSTSTAYMELRSLRSDDTAVYYCAREAGSSWYDFDLWGRGTLVTVSS
VL: DIQMTQSPSSVSASVGDRVTITCRASQGISSWLAWYQQKPGKAPKLLIYAASNLQSGVPSRFSGSGSGTDFTLTISSLQPEDFATYYCQQGASFPITFGGGTKVEIKR
